Test results: publication PMC5187861

What was measured:
Assay in all cases: yeast two-hybrid, quantitative β-galactosidase assay
[1] = target: HK1a cytoplasmic part (HK1a-CP), LexA-based two-hybrid bait; settings: HK1a-CP as bait, HPt as prey, mean of at least four independent assays in triplicate, standard error bars, read off a plot
[2] = target: HK1a receiver domain (HK1a-RD), LexA-based two-hybrid bait; settings: HK1a-RD as bait, HPt as prey, mean of at least four independent assays in triplicate, standard error bars, read off a plot
[3] = target: HK1b receiver domain (HK1b-RD), LexA-based two-hybrid bait; settings: HK1b-RD as bait, HPt as prey, standard error bars, read off a plot
[4] = target: HK1b cytoplasmic part (HK1b-CP), LexA-based two-hybrid fusion; settings: HK1b-CP as bait, HPt as prey, standard error bars, read off a plot

response (β-Galactosidase units) ([1]; parent: est. 4.2) | response (β-Galactosidase units) ([2]; parent: est. 19) | response (β-Galactosidase units) ([3]; parent: est. 11) | response (β-Galactosidase units) ([4]; parent: est. 2.3) | response (β-Galactosidase units) ([1]; parent: est. 71) | response (β-Galactosidase units) ([2]; parent: est. 120) | response (β-Galactosidase units) ([3]; parent: est. 240) | response (β-Galactosidase units) ([4]; parent: est. 11) | Substance
5.5 | 33 | 16 | 3.7 | – | – | – | – | HPt1, histidine-containing phosphotransfer protein 1 (two-hybrid prey) K33L; R74K; S77A
– | – | – | – | 32 | 95 | 210 | 7 | HPt2, histidine-containing phosphotransfer protein 2 (two-hybrid prey) L32K; K73R; A76S
